Laboratory results: patent US20080292632A1 (US Dept. of Health and Human Services, published 2008)

How the values were obtained:
[1] = molecular target: T1, CD30 on transfected 293T cells (human, UniProt P28908 19-595); experiment: cell-ELISA, formalin-fixed cells
T1 construct: whole, on cells
T1 sequence (looked up): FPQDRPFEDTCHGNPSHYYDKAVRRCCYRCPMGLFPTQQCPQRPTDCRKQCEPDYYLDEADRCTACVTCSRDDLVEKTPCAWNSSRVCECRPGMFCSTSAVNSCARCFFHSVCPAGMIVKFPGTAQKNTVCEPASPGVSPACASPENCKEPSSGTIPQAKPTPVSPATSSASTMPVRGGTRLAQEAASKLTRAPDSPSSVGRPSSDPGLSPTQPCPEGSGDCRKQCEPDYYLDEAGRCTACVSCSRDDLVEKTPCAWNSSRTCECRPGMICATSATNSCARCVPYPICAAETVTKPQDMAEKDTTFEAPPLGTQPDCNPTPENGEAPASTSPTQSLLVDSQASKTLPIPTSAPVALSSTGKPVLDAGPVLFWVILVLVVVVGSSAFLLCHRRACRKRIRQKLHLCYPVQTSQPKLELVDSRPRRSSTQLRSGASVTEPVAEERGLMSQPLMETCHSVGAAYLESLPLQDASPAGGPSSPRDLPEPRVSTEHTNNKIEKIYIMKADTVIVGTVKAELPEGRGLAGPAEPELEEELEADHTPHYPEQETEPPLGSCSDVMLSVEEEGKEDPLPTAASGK
Experimental: Cell-ELISA. […] After overnight culture, the cells were fixed with 3.7% formalin in the culture medium at room temperature overnight. Incubation with a dilution of MAbs, secondary antibody and substrate was performed as described in the ELISA protocol except that 1% FBS in PBS was used for washing.

[2] = molecular target: T2, CD30-Fc fusion protein (human, UniProt P28908 19-385); experiment: ELISA
T2 construct: extracellular domain; Negative control antigen; not shown: human IgG1 hinge and Fc of pRB-2k1-CD30
T2 sequence (looked up): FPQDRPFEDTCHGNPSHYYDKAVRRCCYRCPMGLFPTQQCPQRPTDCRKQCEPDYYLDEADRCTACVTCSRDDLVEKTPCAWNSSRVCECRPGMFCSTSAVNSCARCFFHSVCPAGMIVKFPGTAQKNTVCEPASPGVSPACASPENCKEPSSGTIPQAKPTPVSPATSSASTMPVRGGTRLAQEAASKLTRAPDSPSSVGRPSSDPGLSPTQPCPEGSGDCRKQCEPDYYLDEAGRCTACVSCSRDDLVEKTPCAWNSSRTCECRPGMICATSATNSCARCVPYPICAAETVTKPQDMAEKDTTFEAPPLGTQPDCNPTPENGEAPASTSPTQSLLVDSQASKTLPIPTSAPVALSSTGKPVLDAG

B1: F25 (antibody, IgG2a, V domains shown)
VH: EVQLQQSGPELVKPGTSVKMSCKASGYSFTGYFMNWMMQNHGKSLEWIGRINLYNGDTFYNQKFKDKATLTVDKSSNTVHMEFRSLASEDSAVYYCASSLYYFDYWGQGTTFTVSS
VL: DIVMTQSHKFMSTSVGDRVNITCKASQDVGTNVAWYQQKPGQSPKLLIYWASTRQTGVPDRFTGSGSGTDFTLTISNVQSEDLSDYFCQQYSSYPLTFGAGTKLELKR
notes: mouse hybridoma MAb, IgG2a, kappa; also called MAb F25; biotin-MAb F25
binding result [1]: no binding (tested: ’0.2)
binding result [2]: no binding
